# B1: bevacizumab variant H97F (taken as IgG format) (antibody, name in Kabat numbering, V domains shown)
# VH: EVQLVESGGGLVQPGGSLRLSCAASGYTFTNYGMNWVRQAPGKGLEWVGWINTYTGEPTYAADFKRRFTFSLDTSKSTAYLQMNSLRAEDTAVYYCAKYPFYYGSSHWYFDVWGQGTLVTVSS
# VL: DIQMTQSPSSLSASVGDRVTITCSASQDISNYLNWYQQKPGKAPKVLIYFTSSLHSGVPSRFSGSGSGTDFTLTISSLQPEDFATYYCQQYSTVPWTFGQGTKVEIKR
# notes: also called H97F mutation alone
# Biological target: T1, human VEGF-A residues 27-191 of Accession # AAV38412 (human, UniProt P15692 27-191)
# T1 construct: range 27-191
# T1 sequence (P15692 other isoform, or with tags, fused parts or gaps limits assumed): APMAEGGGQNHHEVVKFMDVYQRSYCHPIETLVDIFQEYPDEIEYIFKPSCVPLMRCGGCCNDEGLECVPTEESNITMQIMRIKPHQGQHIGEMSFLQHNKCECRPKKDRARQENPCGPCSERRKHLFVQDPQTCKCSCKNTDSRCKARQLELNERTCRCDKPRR
# Assay: SPR (BIAcore T200), cited from Table 21
# Method: Coupling running buffer was HBS-EP+ running buffer (10 mM HEPES, 150 mM sodium chloride, 3 mM EDTA 0.05% P-20, pH 7.4); assay running buffer was HBS-EP+ with 300 mM sodium chloride and 0.1 mg/mL BSA (Sigma A7906). […] For binding kinetics assay a series of cycles were performed, each cycle consisted of 1) mAb capture, 2) Ag or buffer injection, 3) dissociation phase and 4) regeneration. […] No capture of the antibody was made on the reference surface to serve for primary referencing and as a negative control. […] At the end of each cycle the surface was regenerated with 10 mM glycine, pH 1.5 at a flow rate of 60 μL/min in pulses of 60 and 10 sec. Binding data were fit to the 1:1 Langmuir model with mass transport term included using Biacore T200 Evaluation Software to determine the binding constants.
binder,measurement,value
B1,fold improvement in off-rate over wild type,> 6 fold

# Reference: patent US20150299307A1 (AbbVie / Abbott, published 2015)
